# According to patent publication CN110357963A (BEIJING ZHIREN MEIBO BIOTECHNOLOGY CO LTD, dated 2019):
# T1: ST2L (IL1RL1) on cells (human, UniProt Q01638 19-556)
# T1 sequence (looked up): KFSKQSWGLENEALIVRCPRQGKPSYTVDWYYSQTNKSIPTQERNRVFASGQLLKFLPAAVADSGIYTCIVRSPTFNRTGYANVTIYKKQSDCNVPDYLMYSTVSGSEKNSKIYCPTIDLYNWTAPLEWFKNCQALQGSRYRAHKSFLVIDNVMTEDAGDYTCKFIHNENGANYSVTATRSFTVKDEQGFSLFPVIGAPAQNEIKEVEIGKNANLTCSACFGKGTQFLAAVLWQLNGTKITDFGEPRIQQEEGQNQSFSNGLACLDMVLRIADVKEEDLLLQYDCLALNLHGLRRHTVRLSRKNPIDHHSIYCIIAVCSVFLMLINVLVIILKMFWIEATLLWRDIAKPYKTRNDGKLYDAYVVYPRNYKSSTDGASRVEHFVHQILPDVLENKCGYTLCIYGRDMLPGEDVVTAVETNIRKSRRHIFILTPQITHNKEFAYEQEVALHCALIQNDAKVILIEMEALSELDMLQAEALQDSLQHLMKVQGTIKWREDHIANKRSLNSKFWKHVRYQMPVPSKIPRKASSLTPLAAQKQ
# T2: 重组人ST2-his (人ST2胞外区, C端His标签) (human (homo sapiens), UniProt Q01638 19-328)
# T2 construct: Expressed in HEK293 cells; also called hST2-his; hST2-His; not shown: His tag at C-terminus
# T2 sequence: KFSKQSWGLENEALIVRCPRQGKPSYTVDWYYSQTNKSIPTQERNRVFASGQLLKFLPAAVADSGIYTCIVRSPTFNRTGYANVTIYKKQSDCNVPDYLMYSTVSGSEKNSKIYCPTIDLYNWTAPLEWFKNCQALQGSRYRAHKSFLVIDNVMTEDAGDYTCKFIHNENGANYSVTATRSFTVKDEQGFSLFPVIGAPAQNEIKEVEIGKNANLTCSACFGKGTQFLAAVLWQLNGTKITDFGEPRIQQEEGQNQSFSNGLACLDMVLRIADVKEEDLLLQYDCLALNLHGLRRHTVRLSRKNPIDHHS
# T3: 小鼠ST2 (mST2-his) (mouse (mus musculus), UniProt P14719 27-332)
# T3 construct: not shown: His tag at C-terminus
# T3 sequence: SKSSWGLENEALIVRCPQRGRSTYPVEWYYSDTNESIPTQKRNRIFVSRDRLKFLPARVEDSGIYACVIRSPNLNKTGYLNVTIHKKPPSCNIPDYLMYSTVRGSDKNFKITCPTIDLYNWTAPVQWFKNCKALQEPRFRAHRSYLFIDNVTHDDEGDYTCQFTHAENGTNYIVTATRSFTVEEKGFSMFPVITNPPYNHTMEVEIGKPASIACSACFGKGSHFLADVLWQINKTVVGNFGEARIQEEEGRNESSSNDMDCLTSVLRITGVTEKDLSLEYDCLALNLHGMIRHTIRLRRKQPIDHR
# T4: 猕猴ST2 (mmST2-his) (rhesus macaque (Macaca mulatta), UniProt Q01638 19-328 (human entry))
# T4 construct: not shown: His tag at C-terminus
# T4 chain: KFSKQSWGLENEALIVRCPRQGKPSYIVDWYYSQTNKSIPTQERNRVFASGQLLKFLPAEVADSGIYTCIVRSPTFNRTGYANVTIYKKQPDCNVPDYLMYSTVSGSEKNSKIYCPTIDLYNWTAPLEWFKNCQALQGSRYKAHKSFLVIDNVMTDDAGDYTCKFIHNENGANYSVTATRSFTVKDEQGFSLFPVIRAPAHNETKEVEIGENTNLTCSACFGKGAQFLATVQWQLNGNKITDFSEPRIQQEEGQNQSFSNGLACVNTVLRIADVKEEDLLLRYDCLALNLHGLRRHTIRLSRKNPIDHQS
# What was measured:
# ST2L (IL1RL1) on cells = biological target: T1, ST2L (IL1RL1) on cells; experiment: cell-based or functional assay
# [1] = biological target: T2, 重组人ST2-his (人ST2胞外区, C端His标签); experiment: SPR Biacore X100, antibody captured by anti-human Fc, hST2-his analyte, 25 °C, 1:1 model
# [2] = biological target: T2, 重组人ST2-his (人ST2胞外区, C端His标签); experiment: competition ELISA, hST2-his coated, competitor hIL33-mFc 0.5 µg/mL, antibody titrated
# [3] = biological target: T2, 重组人ST2-his (人ST2胞外区, C端His标签); experiment: phage display solid-phase panning on recombinant human ST2-his
# 小鼠ST2 (mST2-his) [4] = biological target: T3, 小鼠ST2 (mST2-his); experiment: ELISA, mST2-his coated 1 µg/mL, HRP anti-human IgG
# 猕猴ST2 (mmST2-his) = biological target: T4, 猕猴ST2 (mmST2-his); experiment: ELISA, mmST2-his coated 1 µg/mL, HRP anti-human IgG
# [5] = biological target: T2, 重组人ST2-his (人ST2胞外区, C端His标签); experiment: SPR Biacore X100 as in Example 3.4, antibody captured, hST2-his analyte
# [6] = biological target: T2, 重组人ST2-his (人ST2胞外区, C端His标签); experiment: as above; remark: listed apart in the source
# 小鼠ST2 (mST2-his) [7] = biological target: T3, 小鼠ST2 (mST2-his); experiment: ELISA, mST2-his coated at 1 µg/mL, HRP anti-human IgG detection
IC50 of inhibition of IFNγ secretion by PBMC co-stimulated with IL-33 and IL-12 (ST2L (IL1RL1) on cells),binding result (小鼠ST2 (mST2-his) [4]),binding result (猕猴ST2 (mmST2-his)),Kd [5],Binder,further results
15.7 pM,–,–,–,"GSK3772847-IgG4 (antibody, V domains shown, Positive control antibody made after US9382318B2/US9090694B2; also called 抗人ST2对照抗体GSK3772847) VH: EVQLLESGGGLVQPGGSLRLSCAASGFTFSIYDMIWVRQAPGKGLEWVSSIRGEGGGTYYADSVKGRFTISRDNSKNTLYLQMNSLRAEDTAVYYCARDPWSTEGSFFVLDYWGQGTLVTVSS VL: EIVLTQSPATLSLSPGERATLSCRASQSVDDDLAWYQQKPGQAPRLLIYDASNRATGIPARFSGSGSGTDFTLTISSLEPEDFAVYYCQQYITAPLTFGQGTKVEIK",Kd [1]: 109 pM; IC50 [2]: 5520 pM
–,–,–,–,"全人源单链抗体S1A4 (scFv, also called S1A4 scFv) scFv: QVQLVQSGAEVKKPGASVKVSCKVSGYTLTELSIHWVRQAPGKGLEWMGGFGPEDGETIYAQKFQGRVTMTEDTSTDTAYMELSSLRSEDTAVYYCINEDSGGLFDFWGQGTTVTVSSGGGGSGGGGSGGGGSDIQLTQSPDSLAVSLGERATINCKSSQSVLYSSNNKNYLAWYQQKPGQPPKLLIYWASTRESGVPDRFSGSGSGTDFTLTISSLQAEDVAVYYCQQYYSTPWTFGQGTKLEIK",binding result [3]: binds
–,binds,binds,115 pM,"H5G3+L2G2 (antibody, IgG4, V domains shown, Full antibody, IgG4 heavy constant region) VH: QVQLVQSGAEVKKPGASVKVSCKVFGYTLTELSMHWVRQAPGKGLEWMGSFDRGDGKTIYAQKFLGRVTMTEDTSTDTAYMELSSLRSEDTAVYYCTNEDSSGLFDFWGQGTLVTVSS VL: not shown",–
38 pM,binds,binds,–,"H5G3+L1D1 (antibody, IgG4, V domains shown, IgG4 heavy constant region) VH: QVQLVQSGAEVKKPGASVKVSCKVFGYTLTELSMHWVRQAPGKGLEWMGSFDRGDGKTIYAQKFLGRVTMTEDTSTDTAYMELSSLRSEDTAVYYCTNEDSSGLFDFWGQGTLVTVSS VL: DIQLTQSPDSLAVSLGERATINCKSSQSLLYSFNNKNYLAWYQQKPGQPPNLLIYWASTRESGVPDRFSASGSGTDFTLTISSLQAEDVAVYYCQQYYGVPQTFGQGTKVEIK",–
–,binds,binds,709 pM,"H5E10+L2G2 (antibody, IgG4, V domains shown, Full antibody, IgG4 heavy constant region) VH: EVQLVQSGAEVKKPGASVKVSCKVSGYTLTELSIHWVRQAPGKGLEWMGGFDPEDGETIYAQKFQGRITLTEDTSTDTAYMELSSLRSEDTAVYYCTNEDSSGLFDYWGQGTLVTVSS VL: not shown",–
37 pM,–,–,–,"MSTT1041A-IgG4 (antibody, V domains shown, Positive control antibody made after US9382318B2/US9090694B2; also called 抗人ST2对照抗体MSTT1041A) VH: EVQLVQSGAEVKKPGESLKISCKGSGYSFTNYWIGWVRQMPGKGLEWMGIIYPGNSDTRFSPSFQGQVTISADKSITTAYLQWSSLKASDTAMYYCARHGTSSDYYGLDVWGQGTTVTVSS VL: not shown",Kd [1]: 240 pM; IC50 [2]: 3790 pM
–,binds,binds,695 pM,"H6D6+L2G2 (antibody, IgG4, V domains shown, Full antibody, IgG4 heavy constant region) VH: QMQLVQSGAEVKKPGSSVKVSCKASGGTFSSYAISWVRQAPGKGLEWMGGFDPEDGETIYAQKFQGRVTMTEDTSTDTAYMELSSLRSEDTAVYYCTTEDSSGLLDFWGQGTLVTVSS VL: not shown",–
–,–,–,–,"S1A4VH+L2G2 (antibody, V domains shown, Full antibody, heavy chain constant region IgG4 subtype) VH: QVQLVQSGAEVKKPGASVKVSCKVSGYTLTELSIHWVRQAPGKGLEWMGGFGPEDGETIYAQKFQGRVTMTEDTSTDTAYMELSSLRSEDTAVYYCINEDSGGLFDFWGQGTTVTVSS VL: not shown",Kd [6]: 79.4 pM
–,binds,binds,139 pM,"S1A4-IgG4 (antibody, V domains shown, Full antibody; also called 抗人ST2单克隆抗体S1A4) VH: QVQLVQSGAEVKKPGASVKVSCKVSGYTLTELSIHWVRQAPGKGLEWMGGFGPEDGETIYAQKFQGRVTMTEDTSTDTAYMELSSLRSEDTAVYYCINEDSGGLFDFWGQGTTVTVSS VL: not shown",Kd [1]: 135 pM; Kd [6]: 111 pM; IC50 [2]: 4150 pM
–,–,–,–,"S1A4VH+L1D1 (antibody, V domains shown, Full antibody, heavy chain constant region IgG4 subtype) VH: QVQLVQSGAEVKKPGASVKVSCKVSGYTLTELSIHWVRQAPGKGLEWMGGFGPEDGETIYAQKFQGRVTMTEDTSTDTAYMELSSLRSEDTAVYYCINEDSGGLFDFWGQGTTVTVSS VL: DIQLTQSPDSLAVSLGERATINCKSSQSLLYSFNNKNYLAWYQQKPGQPPNLLIYWASTRESGVPDRFSASGSGTDFTLTISSLQAEDVAVYYCQQYYGVPQTFGQGTKVEIK",Kd [6]: 152 pM
17.5 pM,–,–,85.2 pM,"H5G10+L2G2 (antibody, IgG4, V domains shown, Full antibody, IgG4 heavy constant region) VH: EVQLVQSGAEVKKPGASVKVSCKVSGYTLTELSIHWVRQAPGKGLEWMGGFGPEDGEAIYAQKVQGRVILSEDTATDTAYMELSSLRSEDTAVYYCTNEDSGGLFDYWGQGTLVTVSS VL: not shown",binding result (小鼠ST2 (mST2-his) [7]): no binding
–,binds,binds,37.3 pM,"H6D3+L2G2 (antibody, IgG4, V domains shown, Full antibody, IgG4 heavy constant region) VH: QVQLVQSGAEVKKPGASVKVSCKVSGHTLTELSIHWVRQTPGKGLVWLGGFESEDGEAIYAQNFQGRVIMTEDTFTDTAYMELSSLRSEDTAVYYCTTEDSSGLIDYWGQGTLVTVSS VL: not shown",–
